# Laboratory results reported in US20230348605A1 (published 2023).
# What was measured:
# [1] = biological target: T1, EIIIB domain of fibronectin; assay: BLI
# T1 construct: domain: EIIIB domain; also called recombinantly expressed EIIIB domain of FN
# [2] = biological target: T2, fibronectin (FN) containing the EIIIB domain, in the ECM of aortic endothelial cells from control/wild type … (mouse, UniProt P11276 33-2477); assay: biotinylated NJB2 detected with streptavidin-Alexa488 on endothelial cells and their ECM
# T2 construct: whole, on cells; Protein stood in the cell-derived extracellular matrix, not on the cell membrane; also called EIIIB domain of FN
# T2 sequence (P11276 33-2477): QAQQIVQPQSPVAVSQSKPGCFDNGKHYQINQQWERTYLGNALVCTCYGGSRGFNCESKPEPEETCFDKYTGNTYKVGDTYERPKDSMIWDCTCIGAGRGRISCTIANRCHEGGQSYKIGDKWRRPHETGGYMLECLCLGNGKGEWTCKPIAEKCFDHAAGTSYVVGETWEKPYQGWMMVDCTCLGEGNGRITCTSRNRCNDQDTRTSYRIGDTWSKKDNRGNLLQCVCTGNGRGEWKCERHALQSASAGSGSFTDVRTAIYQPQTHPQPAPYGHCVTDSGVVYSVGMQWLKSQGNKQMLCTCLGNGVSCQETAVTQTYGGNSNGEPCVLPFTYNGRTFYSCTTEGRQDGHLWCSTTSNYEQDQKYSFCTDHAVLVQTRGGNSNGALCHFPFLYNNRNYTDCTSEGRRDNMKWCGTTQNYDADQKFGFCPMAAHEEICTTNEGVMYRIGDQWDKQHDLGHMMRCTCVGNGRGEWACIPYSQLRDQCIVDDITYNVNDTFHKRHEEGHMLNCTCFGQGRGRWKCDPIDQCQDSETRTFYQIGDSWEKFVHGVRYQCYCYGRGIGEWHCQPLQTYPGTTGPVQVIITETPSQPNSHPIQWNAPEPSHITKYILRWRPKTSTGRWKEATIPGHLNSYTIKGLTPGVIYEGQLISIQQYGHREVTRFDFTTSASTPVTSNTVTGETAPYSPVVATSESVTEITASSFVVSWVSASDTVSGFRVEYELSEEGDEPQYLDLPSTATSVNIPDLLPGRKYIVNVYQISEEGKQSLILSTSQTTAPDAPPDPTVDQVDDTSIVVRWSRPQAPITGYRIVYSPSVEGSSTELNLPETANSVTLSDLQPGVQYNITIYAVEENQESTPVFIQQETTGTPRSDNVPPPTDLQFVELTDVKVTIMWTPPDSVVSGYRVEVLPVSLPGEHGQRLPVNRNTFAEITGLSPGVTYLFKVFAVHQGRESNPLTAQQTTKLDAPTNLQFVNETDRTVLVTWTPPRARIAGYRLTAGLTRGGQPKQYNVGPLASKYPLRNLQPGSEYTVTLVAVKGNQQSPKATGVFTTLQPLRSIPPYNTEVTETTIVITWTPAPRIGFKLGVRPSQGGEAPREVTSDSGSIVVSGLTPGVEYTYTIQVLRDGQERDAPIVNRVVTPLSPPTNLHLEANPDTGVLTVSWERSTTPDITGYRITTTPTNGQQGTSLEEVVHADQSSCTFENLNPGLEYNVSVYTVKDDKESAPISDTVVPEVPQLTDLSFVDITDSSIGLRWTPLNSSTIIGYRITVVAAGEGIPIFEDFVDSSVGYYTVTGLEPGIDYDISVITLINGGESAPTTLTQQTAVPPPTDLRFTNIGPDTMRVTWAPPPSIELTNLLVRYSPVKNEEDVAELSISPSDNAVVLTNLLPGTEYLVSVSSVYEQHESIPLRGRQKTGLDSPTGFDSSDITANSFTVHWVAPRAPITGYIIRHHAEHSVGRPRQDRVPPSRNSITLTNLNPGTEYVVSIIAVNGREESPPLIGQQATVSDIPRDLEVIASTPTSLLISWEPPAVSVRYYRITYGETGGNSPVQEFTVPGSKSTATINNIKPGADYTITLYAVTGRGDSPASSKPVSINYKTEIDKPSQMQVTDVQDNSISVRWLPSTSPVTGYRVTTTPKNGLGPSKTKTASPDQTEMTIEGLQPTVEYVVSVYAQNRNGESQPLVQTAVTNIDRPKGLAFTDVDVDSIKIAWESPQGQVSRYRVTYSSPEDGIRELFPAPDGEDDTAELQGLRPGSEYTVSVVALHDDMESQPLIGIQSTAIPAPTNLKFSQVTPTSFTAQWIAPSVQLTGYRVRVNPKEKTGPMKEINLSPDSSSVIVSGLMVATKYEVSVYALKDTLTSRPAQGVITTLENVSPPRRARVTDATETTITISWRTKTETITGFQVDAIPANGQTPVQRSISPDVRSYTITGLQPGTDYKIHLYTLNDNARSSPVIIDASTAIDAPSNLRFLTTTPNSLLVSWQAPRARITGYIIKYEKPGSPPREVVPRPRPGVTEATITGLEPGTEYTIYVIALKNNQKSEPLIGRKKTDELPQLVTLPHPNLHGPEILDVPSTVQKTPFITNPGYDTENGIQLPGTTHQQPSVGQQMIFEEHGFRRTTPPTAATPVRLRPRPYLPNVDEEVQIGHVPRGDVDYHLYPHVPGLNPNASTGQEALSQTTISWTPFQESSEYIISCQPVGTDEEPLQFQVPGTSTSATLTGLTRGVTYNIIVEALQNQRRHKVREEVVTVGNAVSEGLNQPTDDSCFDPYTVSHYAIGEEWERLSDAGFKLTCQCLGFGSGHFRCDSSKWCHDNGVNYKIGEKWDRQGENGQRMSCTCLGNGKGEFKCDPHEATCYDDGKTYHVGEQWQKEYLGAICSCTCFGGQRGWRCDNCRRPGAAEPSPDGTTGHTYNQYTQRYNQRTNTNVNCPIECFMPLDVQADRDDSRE
# Source text: The NJB2 was site-specifically labelled with biotin via sortagging and detected with streptavidin-Alexa488. […] The αEIIIB control was cells stained with mouse monoclonal IgG specific to an epitope in the EIIIB domain of FN. The negative control, C, was unstained cells.
# [3] = biological target: T3, FN-EIIIB in human patient tissue (PDAC stroma; metastases on a tissue array) (human, UniProt P02751 32-2477); assay: immunohistochemistry on a multi-organ metastatic tissue array
# T3 construct: Endogenous protein in tissue sections; also called EIIIB expressed in human PDAC stroma; stromal FN-EIIIB
# T3 sequence (P02751 32-2477): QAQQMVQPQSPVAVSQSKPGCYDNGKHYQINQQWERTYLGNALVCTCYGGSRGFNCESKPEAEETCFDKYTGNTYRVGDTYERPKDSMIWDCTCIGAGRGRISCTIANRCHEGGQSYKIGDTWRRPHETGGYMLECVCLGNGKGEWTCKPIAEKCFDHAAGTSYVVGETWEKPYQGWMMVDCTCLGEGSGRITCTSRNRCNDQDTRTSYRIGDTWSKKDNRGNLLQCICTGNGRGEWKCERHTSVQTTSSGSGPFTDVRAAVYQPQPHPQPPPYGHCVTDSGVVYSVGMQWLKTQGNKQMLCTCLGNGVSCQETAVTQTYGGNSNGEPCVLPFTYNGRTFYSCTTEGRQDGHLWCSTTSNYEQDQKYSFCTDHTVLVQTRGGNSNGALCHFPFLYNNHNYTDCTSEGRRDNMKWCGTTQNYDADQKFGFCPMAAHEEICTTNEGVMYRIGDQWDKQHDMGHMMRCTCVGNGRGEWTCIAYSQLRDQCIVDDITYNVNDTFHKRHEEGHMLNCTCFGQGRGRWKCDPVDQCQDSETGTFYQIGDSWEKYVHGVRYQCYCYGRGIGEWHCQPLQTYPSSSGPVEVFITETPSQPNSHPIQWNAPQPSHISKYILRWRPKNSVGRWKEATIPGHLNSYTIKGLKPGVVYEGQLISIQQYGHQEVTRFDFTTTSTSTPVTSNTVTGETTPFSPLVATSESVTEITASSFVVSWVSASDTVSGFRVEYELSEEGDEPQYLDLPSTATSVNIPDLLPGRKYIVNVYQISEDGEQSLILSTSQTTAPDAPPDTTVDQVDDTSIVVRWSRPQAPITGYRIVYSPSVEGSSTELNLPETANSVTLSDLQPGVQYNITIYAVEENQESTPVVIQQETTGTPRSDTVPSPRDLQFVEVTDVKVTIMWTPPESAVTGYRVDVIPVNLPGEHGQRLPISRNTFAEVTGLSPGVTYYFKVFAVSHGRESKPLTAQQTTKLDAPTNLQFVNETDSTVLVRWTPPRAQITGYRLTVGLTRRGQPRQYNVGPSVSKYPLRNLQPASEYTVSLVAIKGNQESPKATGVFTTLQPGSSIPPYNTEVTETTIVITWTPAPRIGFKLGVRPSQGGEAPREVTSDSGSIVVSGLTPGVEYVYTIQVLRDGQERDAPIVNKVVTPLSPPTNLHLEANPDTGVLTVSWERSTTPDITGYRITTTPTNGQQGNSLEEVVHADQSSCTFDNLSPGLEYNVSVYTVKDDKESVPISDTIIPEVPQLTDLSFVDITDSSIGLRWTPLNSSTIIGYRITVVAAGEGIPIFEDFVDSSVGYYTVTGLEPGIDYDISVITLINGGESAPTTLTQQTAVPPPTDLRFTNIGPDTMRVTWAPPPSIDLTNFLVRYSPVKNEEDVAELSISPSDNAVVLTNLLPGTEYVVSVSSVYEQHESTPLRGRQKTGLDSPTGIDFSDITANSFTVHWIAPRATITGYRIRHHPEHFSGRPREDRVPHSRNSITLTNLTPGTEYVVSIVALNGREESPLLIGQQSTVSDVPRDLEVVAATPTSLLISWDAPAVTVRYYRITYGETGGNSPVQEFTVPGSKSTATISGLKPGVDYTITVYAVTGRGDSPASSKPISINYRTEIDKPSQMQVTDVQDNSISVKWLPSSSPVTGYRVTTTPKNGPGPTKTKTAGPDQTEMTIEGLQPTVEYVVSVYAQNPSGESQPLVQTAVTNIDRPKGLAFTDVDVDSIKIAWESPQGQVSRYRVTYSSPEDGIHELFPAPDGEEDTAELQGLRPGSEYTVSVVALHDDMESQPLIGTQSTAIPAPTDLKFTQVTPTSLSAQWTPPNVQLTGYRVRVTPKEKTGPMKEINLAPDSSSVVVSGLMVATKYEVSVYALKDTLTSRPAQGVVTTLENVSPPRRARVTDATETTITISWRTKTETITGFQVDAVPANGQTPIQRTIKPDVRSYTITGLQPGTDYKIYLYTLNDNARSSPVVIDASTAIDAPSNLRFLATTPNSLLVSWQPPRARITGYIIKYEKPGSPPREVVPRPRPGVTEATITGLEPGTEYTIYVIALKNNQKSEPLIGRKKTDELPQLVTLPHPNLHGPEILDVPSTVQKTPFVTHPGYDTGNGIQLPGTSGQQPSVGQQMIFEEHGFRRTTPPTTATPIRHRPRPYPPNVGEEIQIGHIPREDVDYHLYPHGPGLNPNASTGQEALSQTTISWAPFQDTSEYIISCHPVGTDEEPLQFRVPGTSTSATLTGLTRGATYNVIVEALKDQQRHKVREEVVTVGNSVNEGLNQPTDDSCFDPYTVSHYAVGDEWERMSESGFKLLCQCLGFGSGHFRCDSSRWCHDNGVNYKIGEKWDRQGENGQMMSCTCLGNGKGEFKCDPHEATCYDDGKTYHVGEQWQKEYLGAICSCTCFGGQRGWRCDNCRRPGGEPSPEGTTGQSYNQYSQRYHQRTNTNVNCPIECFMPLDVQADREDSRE
# Source text: To investigate the expression of EIIIB in metastasis samples from multiple patients, we stained a multi-organ tissue array of samples from various metastatic sites derived from 104 patients with NJB2-biotin. […] In parallel, similar results were obtained with a monoclonal anti-EIIIB antibody (AM3, data not shown). These metastases to multiple organs (21 distinct sites) were derived from 17 different primary sites, including rectum, pancreas, lung, ovary, stomach and thyroid among others (Table 4). Among the EIIIB-positive biopsies, ~32% were metastases to the lymph nodes at the metastatic sites (Table 4). This wide expression of EIIIB at metastatic sites in multiple organs and derived from multiple types of primary tumors further broadens the potential applications of NJB2-based imaging and therapeutic applications.
# T1 sequence (P02751 1271-1359): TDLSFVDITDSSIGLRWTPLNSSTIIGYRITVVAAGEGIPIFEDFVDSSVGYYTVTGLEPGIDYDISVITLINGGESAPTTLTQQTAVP
binder,measurement,setting,value
"NJB2 (VHH, site-specifically labelled via sortagging (LPETG tag) with biotin, Texas Red or 64Cu in the staining and imaging assays, After sortagging the C-terminus differs (label in place of the residues after LPET); also called VHH NJB2; VHH-NJB2) VHH: QVQLVETGGGLVQAGGSLRLSCAASGSTFSHNAGGWYRQAPEKQRELVAGISSDGNINYADSVKDRFTISRDNASNTMYLQMNNLKPEDTAVYVCNIRGSYGNTYYSRWGQGTQVTVSS",Kd,[1],~4 nM
same,binding result,[2],binds
same,binding result,[3],binds
